Results on four molecules are retold here after patent US20190323037, “REPLICATIVE TRANSPOSON SYSTEM” (HORIZON DISCOVERY LIMITED, published 2019).

For data set [1], the target named is T1, Helraiser transposase (RepHel, Helitron) (Myotis lucifugus).
T1 chain: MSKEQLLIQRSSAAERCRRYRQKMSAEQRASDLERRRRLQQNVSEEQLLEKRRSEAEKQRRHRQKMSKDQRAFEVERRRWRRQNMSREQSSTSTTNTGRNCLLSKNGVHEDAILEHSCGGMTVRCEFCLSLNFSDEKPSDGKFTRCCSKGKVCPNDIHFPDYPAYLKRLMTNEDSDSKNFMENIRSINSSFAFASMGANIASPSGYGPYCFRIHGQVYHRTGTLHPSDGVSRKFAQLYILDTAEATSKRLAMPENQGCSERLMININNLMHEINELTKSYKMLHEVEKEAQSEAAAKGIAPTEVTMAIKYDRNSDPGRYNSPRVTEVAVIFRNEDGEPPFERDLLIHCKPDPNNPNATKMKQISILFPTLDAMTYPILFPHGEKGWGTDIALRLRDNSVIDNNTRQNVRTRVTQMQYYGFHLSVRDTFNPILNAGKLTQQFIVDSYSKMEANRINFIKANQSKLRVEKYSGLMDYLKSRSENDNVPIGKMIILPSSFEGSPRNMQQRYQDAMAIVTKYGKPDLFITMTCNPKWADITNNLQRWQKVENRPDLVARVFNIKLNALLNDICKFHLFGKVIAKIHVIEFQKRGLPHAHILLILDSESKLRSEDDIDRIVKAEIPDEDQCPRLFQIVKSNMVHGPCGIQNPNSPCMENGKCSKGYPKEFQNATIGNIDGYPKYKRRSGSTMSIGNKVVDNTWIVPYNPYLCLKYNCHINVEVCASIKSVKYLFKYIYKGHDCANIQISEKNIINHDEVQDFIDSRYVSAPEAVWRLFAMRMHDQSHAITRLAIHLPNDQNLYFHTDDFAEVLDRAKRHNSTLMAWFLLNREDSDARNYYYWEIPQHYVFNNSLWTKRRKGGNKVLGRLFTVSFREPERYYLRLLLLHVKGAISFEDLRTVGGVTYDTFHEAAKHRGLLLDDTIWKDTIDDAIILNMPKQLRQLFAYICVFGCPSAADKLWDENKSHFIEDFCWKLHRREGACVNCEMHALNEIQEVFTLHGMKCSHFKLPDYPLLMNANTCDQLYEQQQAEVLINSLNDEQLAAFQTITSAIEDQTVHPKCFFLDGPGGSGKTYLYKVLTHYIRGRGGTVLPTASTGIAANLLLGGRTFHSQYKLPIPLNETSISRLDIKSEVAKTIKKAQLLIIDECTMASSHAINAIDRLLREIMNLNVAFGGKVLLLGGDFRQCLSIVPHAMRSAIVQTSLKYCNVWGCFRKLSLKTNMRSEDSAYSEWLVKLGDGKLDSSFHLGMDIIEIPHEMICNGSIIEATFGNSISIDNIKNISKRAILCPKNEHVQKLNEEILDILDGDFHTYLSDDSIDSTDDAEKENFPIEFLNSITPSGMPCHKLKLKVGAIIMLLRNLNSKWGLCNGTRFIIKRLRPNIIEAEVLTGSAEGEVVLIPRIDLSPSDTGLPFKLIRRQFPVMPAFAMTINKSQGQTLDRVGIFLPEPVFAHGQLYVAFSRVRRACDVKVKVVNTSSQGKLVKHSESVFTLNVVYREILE
Briefly: EMSA; text says cleavage-assay oligonucleotides bound. As to conditions: tags: His tag (pFastBac HT-A), TEV-cleaved, insect cells, label: 6-FAM. The method, then:
(§1) Binding of the Helraiser transposase to various DNA oligonucleotides was measured by EMSA using 6% TBE gels (Invitrogen). Purified protein at 15 nM-150 nM was incubated for 30 min at room temperature in binding buffer (50 mM Tris pH 7.5, 100 mM NaCl, 10 mM MgCl₂, 0.5 mM ETDA, 1 mM TCEP) with 50 nM 6-FAM labeled oligonucleotides. After addition of DNA gel loading solution (Quality Biological, INC), samples were run on 6% TBE gels and visualized.
For orientation: Mobility shift assays separate free from complexed probe on a gel.

Data set [2] concerns the target T1, Helraiser transposase (RepHel, Helitron). Briefly: EMSA; 10 mM MgCl2, 100 mM NaCl, pH 7.5, RT; 50 nM oligo; text says cleavage-assay oligonucleotides. The settings on record: tags: His tag (pFastBac HT-A), TEV-cleaved; insect cells; label: 6-FAM. The method, then: as §1

As to GGGATGGTCAATTTGCATGTTTCTCTTTTATTATATAGGATCATATGGTG (ssDNA, [NONE]) [Helraiser LTS substrate (-), bottom strand], the binding result in data set [1] is “binds”. The same measure, in the same setting: under TATATATATACTAGTGGCCCGGTGCACGAAATTCGTGCACATTGAAAGGG (ssDNA, [NONE]) [Helraiser RTS substrate (-), bottom strand] stands “binds”. With CCCTTTCAATGTGCACGAATTTCGTGCACCGGGCCACTAGTATATATATA (ssDNA) [Helraiser RTS substrate (+), top strand], the binding result in data set [1] (potential hairpin (19-nt palindrome)) was “binds”. CACCATATGATCCTATATAATAAAAGAGAAACATGCAAATTGACCATCCC (ssDNA) [Helraiser LTS substrate (+), top strand]: the binding result in data set [2] is “binds”.
